According to US20240343803A1 (SHANDONG SIMCERE BIOPHARMACEUTICAL, published 2024):
Values belong to the binder of their own block, whether it stands above or below them.

Experiments:
[1] = target: T1, human PVRIG-his (AcroBiosystems, Cat NO. PVG-H52H4) (human, UniProt Q6DKI7 41-171, limits assumed); test: SPR (BIAcore), antibody captured on Protein A chip, human PVRIG-His analyte
T1 construct: also called human PVRIG protein
T1 sequence (looked up): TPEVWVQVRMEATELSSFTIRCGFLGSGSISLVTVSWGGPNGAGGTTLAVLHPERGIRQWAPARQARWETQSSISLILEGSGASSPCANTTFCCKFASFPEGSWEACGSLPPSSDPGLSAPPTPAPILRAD
Procedure: Biacore was used to detect the specific binding between anti-PVRIG antibody and human PVRIG protein. Protein A chip was used in the BIAcore assay. The time required for the chip to capture the diluted antibody and saturate the binding antigen to reach Rₘₐₓ (Maximum binding capacity, 50 RU) was measured by manual run. […] The affinity of antibody for antigen was measured by multi-cycle kinetics. In each cycle, the antibodies were injected prior to the injection of gradient concentraions of PVRIG proteins allowing the occurrence of antibody-antigen association and dissociation After each cycle, the Protein A chip was regenerated by Glycine, pH 1.5 (to remove the proteins on the chip). The affinity of antibody for antigen was calculated by BIAcore T200 analysis software.
The methods refer to Example 10.

[2] = target: T2, human PVRIG on FlpinCHO-PVRIG cells (human, UniProt Q6DKI7 41-326); test: FACS, FlpinCHO-PVRIG cells
T2 construct: whole, on cells
T2 sequence (looked up): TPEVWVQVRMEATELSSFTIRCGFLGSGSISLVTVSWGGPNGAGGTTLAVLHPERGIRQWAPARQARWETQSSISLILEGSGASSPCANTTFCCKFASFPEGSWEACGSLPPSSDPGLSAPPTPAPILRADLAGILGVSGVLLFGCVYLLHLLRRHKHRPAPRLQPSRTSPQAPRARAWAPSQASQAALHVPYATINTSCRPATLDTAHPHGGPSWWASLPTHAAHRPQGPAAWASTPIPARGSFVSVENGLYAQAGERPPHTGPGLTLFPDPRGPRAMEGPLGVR
Procedure: (§1) The Ham's F12 (Gibico, 21127-022) complete medium containing 10% FBS was then added to terminate the digestion and acquire cell suspension. After counting with a cell counter (Beckman Coulter, Vi-CELL), an appropriate amount of cell suspension was centrifuged at 350×g to remove the supernatant, washed twice with PBS, stained with Zombie violet (Biolegend, 423114) and incubated at room temperature for 20 minutes. After incubation, the cells were added with staining buffer (2% FBS+PBS) to stop staining, centrifuged at 350×g to remove the supernatant, washed twice and resuspended with staining buffer to a density of 2×10⁶ cells/mL. The cells were plated into a 96-well plate (50 μL of cell suspension per well) for further use. The antibodies were diluted from the highest concentration of 46 nM (two-fold concentration) with staining buffer by 3.3-fold serial dilution. The diluted antibodies were added to the well containing 50 μL of cell suspension. The plate was placed on a microplate shaker at 400 rpm for 1 minute to fully mix the antibodies and cells, and then incubated at 4° C. for 30 minutes. After the incubation, the cells were washed twice with staining buffer (200 μL per well) and centrifuged at 350×g for 5 minutes to discard the supernatant. The PE goat anti-human IgG Fc antibody (ebioscience, 12-4998-82) was diluted 250 times with staining buffer, added into the washed wells (100 μL per well), mixed well, and stained at 4° C. for 30 minutes. After staining, the cells were washed twice with staining buffer, finally resuspended with 200 μL staining buffer and analyzed by flow cytometry (BD, Canto II). The stronger the signal, the stronger the ability of the antibodies binds to PVRIG. An antibody binding curve was drawn with concentration of antibodies as the abscissa and the corresponding Mean Fluorescence Intensity (MFI) as the ordinate. The AUC value of the curve was calculated by using a Four Parameter Logistic Fit (GraphPadPrism9). The stronger the AUC value, the stronger the ability of the antibodies binds to FlpinCHO-PVRIG and FlpinCHO-cyno PVRIG. […] The binding activity of the antibodies was normalized to the positive control COM701-hIgG1 and SRF813-hIgG1.

[3] = target: T3, cynomolgus monkey PVRIG on FlpinCHO-cyno PVRIG cells (cynomolgus monkey, UniProt A0A2K5WVV8 41-322); test: FACS, FlpinCHO-cyno PVRIG cells
T3 construct: whole, on cells
T3 sequence: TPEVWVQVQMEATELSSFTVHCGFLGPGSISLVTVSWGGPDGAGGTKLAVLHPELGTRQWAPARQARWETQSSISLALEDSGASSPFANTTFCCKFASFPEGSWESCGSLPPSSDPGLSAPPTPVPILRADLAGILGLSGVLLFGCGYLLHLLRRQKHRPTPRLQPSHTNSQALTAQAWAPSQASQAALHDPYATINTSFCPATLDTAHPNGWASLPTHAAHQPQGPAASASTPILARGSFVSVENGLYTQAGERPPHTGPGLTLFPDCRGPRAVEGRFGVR
Procedure: as §1, with “The” for “The Ham's F12 (Gibico, 21127-022) complete medium containing 10% FBS was then added to terminate the digestion and acquire cell suspension. After counting with a cell counter (Beckman Coulter, Vi-CELL), an appropriate amount of cell suspension was centrifuged at 350×g to remove the supernatant, washed twice with PBS, stained with Zombie violet (Biolegend, 423114) and incubated at room temperature for 20 minutes. After incubation, the cells were added with staining buffer (2% FBS+PBS) to stop staining, centrifuged at 350×g to remove the supernatant, washed twice and resuspended with staining buffer to a density of 2×10⁶ cells/mL. The cells were plated into a 96-well plate (50 μL of cell suspension per well) for further use. The”, “SRF813-hIgG1. The higher the percentage value, the stronger the binding ability of the antibodies.” for “SRF813-hIgG1.”
The methods refer to Example 19. The stronger the AUC value, the stronger the ability of the humanized antibodies binds to FlpinCHO-human/cyno PVRIG.

B1: PVRIG-A118-H3 (Fc fusion)
chain: EVQLVESGGGLVQPGGSLRLSCAASETYFDLYVMGWYRQAPGKDRELVATITYTGSIKYVDSVKGRFTISRGDAKNSLYLQMNSLRAEDTAVYYCNADPSGLGRKVYWGQGTMVTVSS
notes: humanized variant of PVRIG-A118; also called A118.VH3; not shown: constant part not restated for the humanized forms; parents are VHH-hinge-CH2-CH3 of human IgG1; detected by anti-human
Kd [1]: 1350 pM | koff [1]: 0.00349 s⁻¹ | kon [1]: 2.59e+06 M⁻¹ s⁻¹ | AUC % to COM701-hIgG1 [2]: 129% | AUC % to SRF813-hIgG1 [2]: 180% | AUC % to parental Ab [2]: 94.5% | AUC % to COM701-hIgG1 [3]: 21% | AUC % to SRF813-hIgG1 [3]: 25.6% | AUC % to parental Ab [3]: 33.6%

B4: PVRIG-A118 (Fc fusion)
chain: QVQLVESGGGLVQAGGSLRLSCAASETYFDLYVMGWYRQAPGKDRELVATITYTGSIKIVDSVKDRFTISRGDAKNTVSLQMSSLKPEDTAVYFCNADPSGLGRKVYWGQGTQVTVSS
notes: heavy chain antibody VHH-hinge-CH2-CH3, human IgG1 constant part; not shown: human IgG1 hinge-CH2-CH3
Kd [1]: 483 pM | koff [1]: 0.00102 s⁻¹ | kon [1]: 2.12e+06 M⁻¹ s⁻¹ | AUC % to COM701-hIgG1 [2]: 136% | AUC % to SRF813-hIgG1 [2]: 191% | AUC % to parental Ab [2]: 100% | AUC % to COM701-hIgG1 [3]: 62.4% | AUC % to SRF813-hIgG1 [3]: 76.1% | AUC % to parental Ab [3]: 100%

B5: PVRIG-A118-H6 (Fc fusion)
chain: EVQLVESGGGLVQPGGSLRLSCAASETYFDLYVMGWYRQAPGKDRELVATITYTGSIKIVDSVKGRFTISRGDAKNSLYLQMNSLRAEDTAVYYCNADPSGLGRKVYWGQGTMVTVSS
notes: humanized variant of PVRIG-A118; also called A118.VH6; not shown: constant part not restated for the humanized forms; parents are VHH-hinge-CH2-CH3 of human IgG1; detected by anti-human
Kd [1]: 1100 pM | koff [1]: 0.00299 s⁻¹ | kon [1]: 2.71e+06 M⁻¹ s⁻¹ | AUC % to COM701-hIgG1 [2]: 129% | AUC % to SRF813-hIgG1 [2]: 180% | AUC % to parental Ab [2]: 94.2% | AUC % to COM701-hIgG1 [3]: 19.9% | AUC % to SRF813-hIgG1 [3]: 24.2% | AUC % to parental Ab [3]: 31.8%

Next, values leading:

Kd [1]: 517 pM | koff [1]: 0.00082 s⁻¹ | kon [1]: 1.59e+06 M⁻¹ s⁻¹ | AUC % to COM701-hIgG1 [2]: 125% | AUC % to SRF813-hIgG1 [2]: 174% | AUC % to parental Ab [2]: 91.3% | AUC % to COM701-hIgG1 [3]: 14.6% | AUC % to SRF813-hIgG1 [3]: 17.8% | AUC % to parental Ab [3]: 23.4%
B2: PVRIG-A118-H2 (Fc fusion)
chain: EVQLVESGGGLVQPGGSLRLSCAASETYFDLYVMGWYRQAPGKDRELVATITYTGSIKYVDSVKGRFTISRDNAKNSLYLQMNSLRAEDTAVYYCNADPSGLGRKVYWGQGTMVTVSS
notes: humanized variant of PVRIG-A118; also called A118.VH2; not shown: constant part not restated for the humanized forms; parents are VHH-hinge-CH2-CH3 of human IgG1; detected by anti-human

Kd [1]: 478 pM | koff [1]: 0.000658 s⁻¹ | kon [1]: 1.38e+06 M⁻¹ s⁻¹ | AUC % to COM701-hIgG1 [2]: 127% | AUC % to SRF813-hIgG1 [2]: 178% | AUC % to parental Ab [2]: 93.2% | AUC % to COM701-hIgG1 [3]: 11.5% | AUC % to SRF813-hIgG1 [3]: 14.1% | AUC % to parental Ab [3]: 18.5%
B3: PVRIG-A118-H1 (Fc fusion)
chain: EVQLVESGGGLVQPGGSLRLSCAASETYFDLYVMGWYRQAPGKDRELVATITYTGSIYYVDSVKGRFTISRDNAKNSLYLQMNSLRAEDTAVYYCNADPSGLGRKVYWGQGTMVTVSS
notes: humanized variant of PVRIG-A118; also called A118.VH1; not shown: constant part not restated for the humanized forms; parents are VHH-hinge-CH2-CH3 of human IgG1; detected by anti-human
